# Measurements taken from patent US20140286957A1 (Teva, published 2014).
# T1: Human CD1d on cells (human, UniProt P15813 20-335)
# T1 sequence (looked up): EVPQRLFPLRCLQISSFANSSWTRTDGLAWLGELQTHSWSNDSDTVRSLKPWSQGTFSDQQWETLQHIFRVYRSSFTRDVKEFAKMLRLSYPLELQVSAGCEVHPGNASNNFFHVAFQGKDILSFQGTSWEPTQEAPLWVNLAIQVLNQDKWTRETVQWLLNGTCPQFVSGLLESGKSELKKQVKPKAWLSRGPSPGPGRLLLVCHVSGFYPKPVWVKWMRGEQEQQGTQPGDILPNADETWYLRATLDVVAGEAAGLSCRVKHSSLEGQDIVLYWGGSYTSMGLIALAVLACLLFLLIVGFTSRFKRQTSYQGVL
# T2: Mouse CD1d (mouse, UniProt P11609 22-305)
# T2 construct: Murine CD1d extracellular domain construct, HEK-293E; also called mCD1d; murine CD1d
# T2 sequence: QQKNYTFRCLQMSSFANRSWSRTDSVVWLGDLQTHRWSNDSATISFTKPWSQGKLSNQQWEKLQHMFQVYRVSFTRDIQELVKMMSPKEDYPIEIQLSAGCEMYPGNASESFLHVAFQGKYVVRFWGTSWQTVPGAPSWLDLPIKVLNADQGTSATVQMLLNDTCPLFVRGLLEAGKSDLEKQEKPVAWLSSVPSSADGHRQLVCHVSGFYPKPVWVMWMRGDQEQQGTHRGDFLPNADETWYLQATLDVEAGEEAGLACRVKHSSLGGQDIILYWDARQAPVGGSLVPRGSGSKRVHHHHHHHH
# T3: hCD1dmu (human with mouse segments)
# T3 chain: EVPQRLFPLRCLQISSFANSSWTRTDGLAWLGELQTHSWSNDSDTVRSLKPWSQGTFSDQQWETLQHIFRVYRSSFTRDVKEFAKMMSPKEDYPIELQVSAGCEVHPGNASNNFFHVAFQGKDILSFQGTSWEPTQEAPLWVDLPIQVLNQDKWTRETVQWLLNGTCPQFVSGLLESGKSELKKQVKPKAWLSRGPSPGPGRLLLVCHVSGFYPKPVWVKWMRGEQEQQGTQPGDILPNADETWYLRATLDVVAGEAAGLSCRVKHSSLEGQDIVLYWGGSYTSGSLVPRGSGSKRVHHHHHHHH
# T4: mCD1dhu (mouse with human segments)
# T4 chain: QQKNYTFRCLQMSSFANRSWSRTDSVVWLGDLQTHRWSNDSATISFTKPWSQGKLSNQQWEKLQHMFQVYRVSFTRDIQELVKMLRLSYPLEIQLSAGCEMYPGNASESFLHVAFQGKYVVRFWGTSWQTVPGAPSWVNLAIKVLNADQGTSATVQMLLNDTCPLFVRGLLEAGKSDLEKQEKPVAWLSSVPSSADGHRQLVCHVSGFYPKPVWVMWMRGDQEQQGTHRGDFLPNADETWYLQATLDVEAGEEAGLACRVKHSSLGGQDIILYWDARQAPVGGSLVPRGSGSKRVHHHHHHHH
# T5: CD1d tetramer loaded with α-GalCer (ProImmune) (UniProt P15813 20-301, limits assumed)
# T5 construct: Bought reagent; also called fluorochrome-conjugated CD1d tetramer
# T5 sequence (looked up): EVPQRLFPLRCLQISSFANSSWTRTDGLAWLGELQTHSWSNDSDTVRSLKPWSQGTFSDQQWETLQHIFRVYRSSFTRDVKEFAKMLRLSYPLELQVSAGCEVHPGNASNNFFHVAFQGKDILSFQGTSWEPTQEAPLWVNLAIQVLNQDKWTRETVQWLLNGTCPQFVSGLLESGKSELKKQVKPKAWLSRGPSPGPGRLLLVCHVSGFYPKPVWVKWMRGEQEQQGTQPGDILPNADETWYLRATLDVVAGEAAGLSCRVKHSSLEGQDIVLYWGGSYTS
# Experiments:
# [1] = molecular target: T6, Human CD1d/β2M (human, UniProt P15813 20-301; P61769 21-119); experiment: direct ELISA, plate coated with 1 µg/mL human CD1d, HRP anti-human kappa detection
# T6 construct: also called hCD1d; recombinant human CD1d
# [2] = molecular target: T1, Human CD1d on cells; experiment: cell-based or functional assay
# [3] = molecular target: T1, Human CD1d on cells; experiment: cell-based or functional assay; remark: listed apart in the source
# [4] = molecular target: T1, Human CD1d on cells; experiment: cell-based or functional assay; remark: listed apart in the source
# [5] = molecular target: Cynomolgus macaque CD1d on cells (cynomolgus macaque); experiment: flow cytometry, biotinylated antibody and streptavidin-PE on cynomolgus PBMC, gated live cells
# [6] = molecular target: T1, Human CD1d on cells; experiment: cell-based or functional assay; remark: listed apart in the source
# [7] = molecular target: T1, Human CD1d on cells; experiment: cell-based or functional assay; remark: listed apart in the source
# [8] = molecular target: T1, Human CD1d on cells; experiment: cell-based or functional assay; remark: listed apart in the source
# [9] = molecular target: T2, Mouse CD1d; experiment: direct ELISA, plate coated with 1 µg/mL CD1d construct, HRP anti-human IgG (H+L) detection
# [10] = molecular target: T3, hCD1dmu; experiment: as above
# [11] = molecular target: T4, mCD1dhu; experiment: as above
# [12] = molecular target: T6, Human CD1d/β2M; experiment: as above
# [13] = molecular target: T5, CD1d tetramer loaded with α-GalCer …; experiment: flow cytometry, inhibition of CD1d tetramer (10 nM) binding to NKTCR on J.RT3-T3.5 cells
# Description: To perform the assay, antibodies were prepared at decreasing concentrations from 10 μg/mL in 0.1% bovine serum albumin (BSA) in cold 1×PBS at pH 7.4. […] Wash steps were done in 0.1% BSA in 1×PBS. Data were acquired by flow cytometry and analyzed using flow cytometry analysis software (FlowJo® Treestar, Inc.).
# [14] = molecular target: T6, Human CD1d/β2M; experiment: SPR, Protein A purified IgG
# [15] = molecular target: T6, Human CD1d/β2M; experiment: SPR, IgG captured, CD1d/β2M analyte
# Description: Purified antibodies were also subjected to full kinetic characterization using a BIACORE™ T100 biosensor (GE Healthcare). Approximately 10,000 RU of anti-human IgG (Invitrogen cat# H10500) was immobilized on a CM5 Series S Sensor chip, using standard amine coupling chemistry in flow cell (FC) 1 and FC2 (or alternatively FC3 and FC4) of the BIACORE™ T100 Biosensor. The running buffer used was HBS-EP-1-(GE Healthcare) and interactions measured at 25° C. Peak purified IgGs were diluted to 10 nM in running buffer, and captured on FC2 (or alternatively FC4) at a flow rate of 10 μL/min in order to capture 50-80 RU of IgG. […] The contact time for association was 120 sec and dissociation measured for 20 mins for the highest concentration and 240 sec for all other concentrations in the series. The sensorgram data from FC2 was subtracted from FC1 and a buffer only control.
binder,measurement,setting,value
"FAb 401.11.165 (Fab, V domains shown, Made by papain digest of the IgG4) VH: EVQLVESGGGLVQPGRSLRLSCAASGFTFDDYAMHWVRQAPGKGLEWVATIIWNSAIIGYADSVKGRFIVSRDNAKNSLYLQMNSLRAEDTALYYCAKDMCSSGGCPDGYFDSWGQGTLVTVSS VL: DIQMTQSPSSVSASVGDRVTITCRASQHISSWLAWYQQKPGKAPKLLIYAASSLQSGVPSRFSGSGSGTDFTLTISSLQPEDFATYYCQQANRFPLTFGGGTKLEIKR",EC50 (read off the curve),[1],~60 ng/mL
"402.8 (antibody, V domains shown, Human IgG4 (S228P); biotinylated or Pacific Blue labelled in some assays) VH: QVQLQESGPGLVRPSETLSLTCAVYGGSFSGYYWSWIRQPPGKGLEWIGEINHSGSTNYNPSLKSRVTISVDTSKNQFSLKLSSVTAADTAVYYCARGEIYDFWNSYMDVWGKGTTVTVSS VL: QTVVTQEPSLTVSPGGTVTLTCASSSGAVSSGNFPNWFQQKPGQAPRALIFSASNKHSWTPARFSGSLLGGKAVLTLSGVQPEDEAEYYCLLYFGDTQLGVFGGGTKVTVLG","fold potency against 51.1, IL-2 release",[2],~17 fold
same,fold potency against antibody 42 (C24:1 βGluCer),[2],≤ 139 fold
same,fold potency against antibody 42 (THP-1 assay),[2],≤ 180 fold
same,fold potency against antibody 42 (moDC assay),[2],≤ 50 fold
same,"fold potency against antibody 42, IL-2 release",[2],~25 fold
same,fold potency against antibody 51.1 (C24:1 βGluCer),[2],≤ 112 fold
same,IL-2 release EC50 (U-937 + NKTCR cell line),[3],4.5 ng/mL
same,IFN-γ EC50 (primary CD14+ cells),[4],28.6 ng/mL
same,IL-4 EC50 (primary CD14+ cells),[4],4 ng/mL
same,IL-5 EC50 (primary CD14+ cells),[4],6.9 ng/mL
same,IL-13 EC50 (primary CD14+ cells),[4],39.9 ng/mL
same,"percent CD1d-positive cells, Donor 1",[5],81.3%
same,"percent CD1d-positive cells, Donor 2",[5],64%
same,IFN-γ EC50 (THP-1),[6],2.4 ng/mL
same,IL-4 EC50 (THP-1),[6],1.7 ng/mL
same,IL-5 EC50 (THP-1),[6],1.2 ng/mL
same,IL-13 EC50 (THP-1),[6],1.5 ng/mL
same,NKT IFN-γ EC50 (moDC),[7],0.105 ng/mL
same,NKT IL-13 EC50 (moDC),[7],0.154 ng/mL
same,"IFN-γ EC50 (C24:1 βGluCer, moDC)",[8],0.995 ng/mL
same,"IL-4 EC50 (C24:1 βGluCer, moDC)",[8],0.636 ng/mL
same,"IL-5 EC50 (C24:1 βGluCer, moDC)",[8],0.929 ng/mL
same,"IL-13 EC50 (C24:1 βGluCer, moDC)",[8],2.94 ng/mL
same,"TNF-α EC50 (C24:1 βGluCer, moDC)",[8],1.51 ng/mL
same,binding result,[9],no binding (tested: 10 µg/mL)
same,binding result,[10],no binding (tested: 10 µg/mL)
same,EC50 (read off the curve),[11],~5 ng/mL
same,EC50 (read off the curve),[12],~6 ng/mL
same,EC50,[13],165 ng/mL
same,Kd,[14],0.145 nM
same,Kd,[15],0.304 nM
same,koff,[15],0.000161 s⁻¹
same,kon,[15],530000 M⁻¹ s⁻¹
